{"source": "paper PMC12016525", "about": "“The GCN4-Swi6B module mediates low nitrogen-induced cell wall remodeling in Ganoderma lucidum”", "key": {"GCN4 [1]": {"target": "T1, GCN4 (Ganoderma lucidum, UniProt A0A6H0YJ80 1-300)", "T1 sequence (A0A6H0YJ80 entry or part of it)": "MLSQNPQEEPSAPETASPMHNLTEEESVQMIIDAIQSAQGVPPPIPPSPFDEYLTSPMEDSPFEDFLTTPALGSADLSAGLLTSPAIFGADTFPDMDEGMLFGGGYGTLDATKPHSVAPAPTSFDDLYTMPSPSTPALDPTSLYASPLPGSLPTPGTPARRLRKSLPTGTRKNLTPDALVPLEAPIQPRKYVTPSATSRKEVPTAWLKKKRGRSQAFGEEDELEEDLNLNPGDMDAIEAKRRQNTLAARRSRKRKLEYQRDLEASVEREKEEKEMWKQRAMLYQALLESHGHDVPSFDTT", "assay": "SPR", "settings": "SPR: 10 mM HEPES pH 7.4, 150 mM NaCl, 3 mM EDTA, 0.005% P20, 25 C, SA chip, GCN4 7.81-125 nM; EMSA: Thermo 89880 kit, conditions not stated; in M (unit assumed)"}, "GCN4 [2]": {"target": "T1, GCN4", "assay": "EMSA; SPR: 10 mM HEPES pH 7.4, 150 mM NaCl, 3 mM EDTA, 0.005% P20, 25 C, SA chip, GCN4 7.81-125 nM; EMSA: Thermo 89880 kit, conditions not stated", "settings": "protein: recombinant; tags: His; chain copies: 2; blunt"}}}
{"molecule": "SWI6 (GBE) SPR probe", "values": [{"measurement": "Kd (M (unit not given))", "setting": "GCN4 [1]", "result": "8.79e-08"}]}
{"molecule": "SWI6 promoter GBE probe (pSwi6-Biotin) (dsDNA) DNA 1: GAAAGTACCAGGGCACCTGGTGAGTCTCAGTCTCGGTGCCATG DNA 2: CATGGCACCGAGACTGAGACTCACCAGGTGCCCTGGTACTTTC", "values": [{"measurement": "binding result", "setting": "GCN4 [2]", "result": "binds"}]}
{"molecule": "m-SWI6 mutant probe (pSwi6-M-Biotin) (dsDNA) DNA 1: GAAAGTACCAGGGATAAATTTATTATATAGTCTCGGTGCCATG DNA 2: CATGGCACCGAGACTATATAATAAATTTATCCCTGGTACTTTC", "values": [{"measurement": "binding result", "setting": "GCN4 [2]", "result": "no binding"}]}
